Test results from patent US20200199225A1 (AVA LIFESCIENCE, published 2020).

Molecular target: T1, CLL subset 2 typical BCR (HC/LC typical for the CLL subset 2) expressed on the surface of TKO cells
T1 construct: also called CLL-Subset2 BCR; BCR of Interest
Assay: FACS on TKO cells expressing the CLL receptor
From the text: Monoclonal antibodies were produced using the standard procedure in mice and the subsequent generation of hybridoma cells. The screening for positive clones was not performed by ELISA as usual. Since the target structure is a membrane-bound receptor, it is of central importance to validate the binding of the potential antibodies in a cellular system, i.e. while largely preserving the cell physiological states native to this cell type. First, groups of pooled supernatants were examined for binding events using FACS analysis. For this purpose different CLL-Subset 2 BCR variants were expressed on the surface of a cell line (TKO), which cannot express BCR itself. […] Subsequently, the supernatants of the individual hybridoma clones were examined in more detail with regard to their binding in order to identify highly specific clones with a high affinity.
For the screening procedure, different vectors were used in the previous transformation for the following heavy chain (HC) and light chain (LC) combinations of the corresponding CLL-BCRs, these combinations being used on the surface of the BCR reconstitution system: [0074] Control (transformation vector without BCR) (see FIG. 1 A) [0075] Vector with HC/LC typical for the CLL subset 2 (see FIG. 1 B) [0076] Vector with a non-CLL subset 2 HC/a LC typical for the CLL subset 2 (without target motif; epitope) (see FIG. 1 C) [0077] […]

T1 sequence (heavy, as listed by the source, chain 1 of 2): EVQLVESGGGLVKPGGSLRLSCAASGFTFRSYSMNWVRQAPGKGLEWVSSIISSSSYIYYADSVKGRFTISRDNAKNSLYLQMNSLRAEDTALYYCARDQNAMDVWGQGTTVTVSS
T1 sequence (light, as listed by the source, chain 2 of 2): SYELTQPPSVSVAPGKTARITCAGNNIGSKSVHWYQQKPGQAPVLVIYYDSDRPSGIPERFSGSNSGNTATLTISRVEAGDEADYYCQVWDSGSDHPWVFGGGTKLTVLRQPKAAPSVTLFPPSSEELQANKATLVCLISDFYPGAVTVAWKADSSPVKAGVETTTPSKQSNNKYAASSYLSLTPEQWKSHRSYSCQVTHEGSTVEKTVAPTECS

B1: AVA-mAb01 (antibody, V domains shown)
VH: QVQLQQSGPGLVQPSQSLSITCTVSGFSLTSYGIHWVRQSPGKGLEWLGVIWRGGGTDSNAAFMSRLSITKDNSKSQVFFKMNSLQADDTAIYYCARSRYDEEESMNYWGQGTSVTVSS
VL: QIVLTQSPASLSASVGETVTITCRASGNIHSYLAWYQQKQGKSPQLLVYNAKTLADGVPSRFSGSGSGTQYSLKINSLQPEDFGSYYCQHFWNTPPTFGAGTKLELK
notes: Murine monoclonal antibody from a hybridoma, tested as hybridoma supernatant and detected with a fluorescence-labeled anti-mouse-IgG antibody; the constant regions are not; also called specific monoclonal antibody against Subset-2; the selected antibody
B1: binds.
